Source: PMC10107836 (Chembiochem, 2022)
Several values for one entry are separate records, joined by “and”; a condition that tells them apart may be missing. Equal values may be shown once.

Target: extraviral domain of SARS-CoV-2 spike protein (aa 1-1213) (SARS-CoV-2) (UniProt P0DTC2)
Assay: SPR

pineapple-derived jacalin-related lectin AcmJRL (natural protein)
Kd: 3.3 µM and 11.1 µM | koff: 0.0034 s⁻¹ | kon: 1060 M⁻¹ s⁻¹
